Percent of mRFP+ cells that are YFP+ (BiFC) data for one substance are collected here from article PMC2700067.

Test [1] has as its target Gag-CY (HIV-1). The test is described as follows: split reporter (BiFC, NanoBiT); BiFC quantified by flow cytometry: 293T cells co-transfected with 0.25 μg of each BiFC construct and mRFP1, harvested about 14 h after transfection and fixed; percent of mRFP+ cells that are YFP+, and mean intensity of YFP+ cells. On the technique in general: A flow cytometer gives signals particle by particle.

Test [2] concerns the target Gag-CY (HIV-1). Described as above. This is another data set of the same source.

Read-outs that look alike come from different tables or passages of the source.

Take Gag-NY (natural protein): the percent of mRFP+ cells that are YFP+ (BiFC) with Gag-CY (HIV-1) [1] worked out at 3.3%; in the test with Gag-CY (HIV-1) [2] it was 3.5%.
